Measured values from the supplement of paper PMC10201428.
± gives the standard deviation of the averaged measurements.

Key:
[1] = test system: VchCAST RNA-guided transposition machinery (E. coli BL21(DE3) host, lacZ target); experiment: relative integration efficiency (T-RL orientation) vs wild-type transposon end (log2 (normalized fold change)); transposon end mutated: right end (5 bp flank + 75 bp right end); higher = more efficient transposition
Method in brief: (§1)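 Barcoded pools of 1549 left-end or 1849 right-end transposon variants were cloned into a pUC57 mini-transposon donor. Each pool was co-transformed with a T7-driven effector plasmid (CRISPR array, tniQ-cas8-cas7-cas6, tnsA-tnsB-tnsC) into E. coli BL21(DE3) and plated with 0.1 mM IPTG at 37°C for 18 h. Input plasmids and genomic integration junctions were PCR-amplified and Illumina-sequenced, with two biological output replicates and four wild-type barcodes as reference. Relative integration efficiency is output/input barcode abundance fold change, normalised to wild-type barcodes and log-transformed.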

[2] = test system: VchCAST RNA-guided transposition machinery (E. coli BL21(DE3) host, lacZ target); experiment: relative integration efficiency (T-LR orientation) vs wild-type transposon end (log2 (normalized fold change)); transposon end mutated: right end (5 bp flank + 75 bp right end); higher = more efficient transposition
Method in brief: as §1

Q: For “ACATTTGTTGATACAACCATAAAATGATAATTCACCCCTAAATTGATAATTATCACACCCACATTTAACTATAACGCTCTGATCATAGTCAGACCAACATTGCTACGACCCGTATTCGCACCGACAC”, which “relative integration efficiency (log2)” value [1] is on record?
A: -3.72 ± 0.048

Q: And the “relative integration efficiency (log2)” value [2]?
A: -0.17 ± 0.1

Q: For “ACATTTGTTGATACAACCATAAAATGATAATTCCACCCATAAATTGATAATTCTCACACCCATAAATTGATATTGACTCTGATCATAGTCAGACCAACATTGCTACGACCCGTATTCGCACCGACAC”, which “relative integration efficiency (log2)” value [1] is on record?
A: -0.563 ± 0.1

Q: And the “relative integration efficiency (log2)” value [2]?
A: -0.163 ± 0.16

Q: With “ACATTTGTTGATACAACCATAAAATGATAATTCCACCCATACATTGATAATTATCACACCCAATTTAACTATAACGCTCTGATCATAGTCAGACCAACATTGCTACGACCCGTATTCGCACCGACAC” as the sequence, how does the “relative integration efficiency (log2)” value [1] read?
A: -2.42 ± 0.38

Q: What about the “relative integration efficiency (log2)” value [2] of the same sequence?
A: 0.785 ± 0.032

Q: Which results are given for “ACATTTGTTGATACAACCATAAAATGATAATTCCACCCCTAAATTGATAATTATCACACCCAATTTAACTATAACGCTCTGATCATAGTCAGACCAACATTGCTACGACCCGTATTCGCACCGACAC”?
A: relative integration efficiency (log2) [1]: -3.1 ± 0.3; relative integration efficiency (log2) [2]: -0.0192 ± 0.33

Q: With “ACATTTGTTGATACAACCATAAAATGATAATTCCACCCCTACATTGATAATTATCACACCCAATTTAACTATAACGCTCTGATCATAGTCAGACCAACATTGCTACGACCCGTATTCGCACCGACAC” as the sequence, how does the “relative integration efficiency (log2)” value [1] read?
A: -3.18 ± 0.52

Q: And the “relative integration efficiency (log2)” value [2]?
A: 0.35 ± 0.091

Q: Which results are given for “ACATTTGTTGATACAACCATAAAATGATAATTTCACCCATAAATTGATAATTTTCACACCCATAAATTGATATTGGCTCTGATCATAGTCAGACCAACATTGCTACGACCCGTATTCGCACCGACAC”?
A: relative integration efficiency (log2) [1]: -0.335 ± 0.13; relative integration efficiency (log2) [2]: -0.0323 ± 0.56

Q: Which “relative integration efficiency (log2)” value [1] does the source give for “ACATTTGTTGATACAACCATAAAATGATAATTTGACCCATAAATTGATAATTATCACACCCATAAATTGATATTGCCTCTGATCATAGTCAGACCAACATTGCTACGACCCGTATTCGCACCGACAC” here?
A: -0.692 ± 0.19

Q: What about the “relative integration efficiency (log2)” value [2] of the same sequence?
A: -0.216 ± 0.13

Q: How did the “relative integration efficiency (log2)” value [1] turn out when “ACATTTGTTGATACAACCATAAAATGATAATTTGTGCCATAAATTGATAATTATCACACCCATAAATTGATATTGCCTCTGATCATAGTCAGACCAACATTGCTACGACCCGTATTCGCACCGACAC” was run?
A: -1.7 ± 0.25

Q: And the “relative integration efficiency (log2)” value [2]?
A: -1.18 ± 0.14

Q: “ACATTTGTTGATACAACCATAAAATGATACACCCATAAATTGATAATTATCACACCCATAAATTGATATTGCCTCTGATCATAGTCAGACCAACATTGCTACGACCCGTATTCGCACCGACACTGAC” was tested. Which “relative integration efficiency (log2)” value [1] did it give?
A: -4.54 ± 0.12

Q: And the “relative integration efficiency (log2)” value [2]?
A: -2.04 ± 0.42

Q: What does the source list for “ACATTTGTTGATACAACCATAAAATGATACGGCACAAACGCCCGGTCGCCGGCGACACAAACGCCCGGTCGCGGTAAGAGGATCATAGTCAGACCAACATTGCTACGACCCGTATTCGCACCGACAC”?
A: relative integration efficiency (log2) [1]: -2.2 ± 0.14; relative integration efficiency (log2) [2]: 0.976 ± 0.29

Q: What does the source list for “ACATTTGTTGATACAACCATAAAATGATACGGCCACCCATAAATTGATAATTATCACACCCATAAATTGATATTGCCTCTGATCATAGTCAGACCAACATTGCTACGACCCGTATTCGCACCGACAC”?
A: relative integration efficiency (log2) [1]: -0.7776 ± 0.00016; relative integration efficiency (log2) [2]: -0.393 ± 0.37

Q: Which “relative integration efficiency (log2)” value [1] does the source give for “ACATTTGTTGATACAACCATAAAATGATACGGCCACCCATAAATTGATACGGCTCACACCCATAAATTGATAGGTACTCTGATCATAGTCAGACCAACATTGCTACGACCCGTATTCGCACCGACAC” here?
A: -1.54 ± 0.28

Q: What about the “relative integration efficiency (log2)” value [2] of the same sequence?
A: 0.469 ± 0.35

Q: With “ACATTTGTTGATACAACCATAAAATGATACGTACACCCATAAATTGATAATTATCACACCCATAAATTGATATTGCCTCTGATCATAGTCAGACCAACATTGCTACGACCCGTATTCGCACCGACAC” as the sequence, how does the “relative integration efficiency (log2)” value [1] read?
A: -0.82 ± 0.068

Q: What about the “relative integration efficiency (log2)” value [2] of the same sequence?
A: -0.504 ± 0.23

Q: Which results are given for “ACATTTGTTGATACAACCATAAAATGATACTTACACCCATAAATTGATACTTATCACACCCATAAATTGATAGTGCCTCTGATCATAGTCAGACCAACATTGCTACGACCCGTATTCGCACCGACAC”?
A: relative integration efficiency (log2) [1]: -0.987 ± 0.027; relative integration efficiency (log2) [2]: -0.0216 ± 0.18

Q: For “ACATTTGTTGATACAACCATAAAATGATATAATCACCCATAAATTGATAATTATCACACCCATAAATTGATATTGCCTCTGATCATAGTCAGACCAACATTGCTACGACCCGTATTCGCACCGACAC”, which “relative integration efficiency (log2)” value [1] is on record?
A: -0.575 ± 0.093

Q: And the “relative integration efficiency (log2)” value [2]?
A: -0.788 ± 0.69

Q: Which “relative integration efficiency (log2)” value [1] does the source give for “ACATTTGTTGATACAACCATAAAATGATATAATCACCCATAAATTGATATAATTCACACCCATAAATTGATAAACGCTCTGATCATAGTCAGACCAACATTGCTACGACCCGTATTCGCACCGACAC” here?
A: -1.01 ± 0.15

Q: What about the “relative integration efficiency (log2)” value [2] of the same sequence?
A: 0.045 ± 0.14

Q: Which results are given for “ACATTTGTTGATACAACCATAAAATGATATATACACCCATAAATTGATAATTATCACACCCATAAATTGATATTGCCTCTGATCATAGTCAGACCAACATTGCTACGACCCGTATTCGCACCGACAC”?
A: relative integration efficiency (log2) [1]: -0.131 ± 0.097; relative integration efficiency (log2) [2]: 0.0362 ± 0.23

Q: Which results are given for “ACATTTGTTGATACAACCATAAAATGATATTTACACCCATAAATTGATATTTATCACACCCATAAATTGATAATGCCTCTGATCATAGTCAGACCAACATTGCTACGACCCGTATTCGCACCGACAC”?
A: relative integration efficiency (log2) [1]: -0.257 ± 0.19; relative integration efficiency (log2) [2]: -0.16 ± 0.048

Q: What does the source list for “ACATTTGTTGATACAACCATAAAATGATCACCCATAAATTGATAATTATCACACCCATAAATTGATATTGCCTCTGATCATAGTCAGACCAACATTGCTACGACCCGTATTCGCACCGACACTGACT”?
A: relative integration efficiency (log2) [1]: -4.08 ± 0.34; relative integration efficiency (log2) [2]: -0.722 ± 0.27

Q: How did the “relative integration efficiency (log2)” value [1] turn out when “ACATTTGTTGATACAACCATAAAATGATCATTACACCCATAAATTGATAATTATCACACCCCATTTAACTATAACGCTCTGATCATAGTCAGACCAACATTGCTACGACCCGTATTCGCACCGACAC” was run?
A: -2.04 ± 0.29

Q: What about the “relative integration efficiency (log2)” value [2] of the same sequence?
A: 1.74 ± 0.078

Q: For “ACATTTGTTGATACAACCATAAAATGATCATTACACCCATAAATTGATAATTATCCCACCCAATTTAACTATAACGCTCTGATCATAGTCAGACCAACATTGCTACGACCCGTATTCGCACCGACAC”, which “relative integration efficiency (log2)” value [1] is on record?
A: -1.52 ± 0.18

Q: And the “relative integration efficiency (log2)” value [2]?
A: 2.27 ± 0.065

Q: Which “relative integration efficiency (log2)” value [1] does the source give for “ACATTTGTTGATACAACCATAAAATGATCATTACACCCATAAATTGATAATTATCCCACCCCATTTAACTATAACGCTCTGATCATAGTCAGACCAACATTGCTACGACCCGTATTCGCACCGACAC” here?
A: -1.84 ± 0.31

Q: And the “relative integration efficiency (log2)” value [2]?
A: 1.87 ± 0.062

Q: With “ACATTTGTTGATACAACCATAAAATGATCATTACACCCATAAATTGATCATTATCACACCCATAAATTGATCTTGCCTCTGATCATAGTCAGACCAACATTGCTACGACCCGTATTCGCACCGACAC” as the sequence, how does the “relative integration efficiency (log2)” value [1] read?
A: -1.214 ± 0.0037

Q: What about the “relative integration efficiency (log2)” value [2] of the same sequence?
A: -0.7415 ± 0.00084

Q: For “ACATTTGTTGATACAACCATAAAATGATCATTACACCCATCAATTGATAATTATCACACCCAATTTAACTATAACGCTCTGATCATAGTCAGACCAACATTGCTACGACCCGTATTCGCACCGACAC”, which “relative integration efficiency (log2)” value [1] is on record?
A: -2.98 ± 0.5

Q: And the “relative integration efficiency (log2)” value [2]?
A: 0.697 ± 0.18

Q: How did the “relative integration efficiency (log2)” value [1] turn out when “ACATTTGTTGATACAACCATAAAATGATCATTACACCCATCAATTGATAATTATCACACCCCATTTAACTATAACGCTCTGATCATAGTCAGACCAACATTGCTACGACCCGTATTCGCACCGACAC” was run?
A: -2.76 ± 0.2

Q: And the “relative integration efficiency (log2)” value [2]?
A: 0.914 ± 0.34
